Among the data in a protein production outcome set (Wang et al. 2014) are protein production values, retold here.

The nature of the data set: label from the status in PepcDB records.
On to “MPEITLKVDSAYPEDQGNGKARLDPSAMQALNVSPGDLVRITGKTSTVAKVWRSFESDWNMEKIRIDKYTRANASVNPGDRVTVEKVEEEIPATSVTLVSPSEISAAFPDEEDDYLISLINFPVSLDDIIPIKTFHPGPPLEFKVSAIEPENACILNKMTELVFNDDDEFDGTKAITYEDIGGLKGELKRVREMIELPIRHPELFETMGIEPPKGVLLYGPPGTGKTLIAKAVANESGAHFISIAGPEIISKYYGESEQKLREIFEEAEEEAPSIIFIDELDSIAPKREDVNGEVERRVVAQLLTMLDGITDRGQVIVIGATNRPDAIDPALRRPGRFDREIEIGVPAEADRMEILQIHTKDMPFEGMAKLKELRSSEPSETVLEKALADYEASRDKLLWMLASQAKGFVGADLAALAREAAIRALRRQIDVADIDNEKIPEEVLRKLEVTTSDFILASREVAPSAMREIALETADVSWTDIGGSRDAVRDVRESVEFPLTRKEVFAQLGIRPPKGVLLYGPPGTGKTMIAKAVAHESGANFIAVKGPELLSKWVGESEKAVRDIFKKARQVAPAIIFFDELDSLTPSRGASDGSRTTENVLNQILTEMDGIEELNDVMILAASNRPDIIDPALLRSGRFDRLVYISEPEEADRKEILAVHMQNMPIEGSSFDEAVKEVSGLNEASLESLGAKFSGKSVTIKQIKTAAGKYTKGTPLSLIEERRRLAAVLRQHAVTLSDPEKTKLIRQLAEDTAGYVGSDLEGLCREAAMHALRNQANVVTADDFAEARKKIHPTMNERVREYYISISQRFKGGLPKEAQNLIEYQ”, for which the protein production entry is “failed”.
For “SGAAAAEADRTLFVGNLETKVTEELLFELFHQAGPVIKVKIPKDKDGKPKQFAFVNFKHEVSVPYAMNLLNGIRLYGRPIKIQFRSGSSHAPQDVSLSYPQHHVGNSSPTSTSPSRYERTMDNMTSSAQIIQRSFSSPENFQRQAVMNSALRQMSYGGKFGSSPLDQSGFSPSVQSHSHSFNQSSSSQWRQGTPSSQRKVRMNSYPYLADRHYSREQRYTDHGSDHHYRGKRDDFFYEDRNHDDWSHDYDNRRDSSRDGKWRSSRH” the value was “not failed”; for “MNKPLVVDLDGTLLRSDMLIESVLAYSKKGIRPVFHLPFWLLEGKAILKARLADRVDLSVEVLPYNTEVIDFIKQAKREQRQIVLATGTHKMFAEKIAEHLGLFDLVIATENGINLSARSKRDCLIDQFGEKGFDYIGNSHDDVVVWNAADKTYLADPEPGVKKKMDLQGGVARVFQTRQSSLRTFFRALRPHQWLKNLLLFIPLIASHQLTNITLIADALLAFVLFSMTASSGYLINDLLDLESDRYHPRKRNRPLASGELPILIGLISAPLLFLASLSASLILLSATFTISLVTYYLLSVVYSQYLKKIPLVDTIMLAGLYTVRILAGAFACSIIPTFWILAFSVFFFLSLAMLKRYAELLDLQTKGDTAKTSGRGYYPSDIQIIASLGTASGYLSILVLALYIQDARTIAMYKTHELIWLACPILLFWISRMWMLTHRGQMHDDPVLFAIKDRTSLITATLFACIFFLAILV”, “failed”; for “TARLVAGLEDVQVYDGEDAVFSLDLSTIIQGTWFLNGEELKSNEPEGQVEPGALRYRIEQKGLQHRLILHAVKHQDSGALVGFSCPGVQDSAALTIQES”, “not failed”.
For “MSKIGRNDPCPCGSGKKYKQCCFHRATSAAATPDAEMLWRAGNAHLAGGALDMALSCYREAVRLRPGFAQAHYNLGVVFQQKGLLDEAAASFRSAISFNRDYAKAYNNLGYILATQGRLDESADCFNRAIAIEPGFAAAYHNLGTTLRHQGRLDETLAAFRTAHAINPHDPVFHSDLLMMLHYSDMDDETLFREHVRWGEQHAPAAASVPTHQCDRDPGRKLRIGYVSGDFGKHPVGYFLLPFLENHDRSQFEICCYSERGQRQEDDVTARIKGHADLWRRTIGLGDAAVAEMIRADGIDILVDLAGHTAHNRLRVFALKPAPVQVTWLGYPNTTGLRAMDYRITDAVADPPGSADALHTEQLIRLEQGFLCYTPPAGAPPVGEAPCLAGAGVTFGSFNNLAKVSPQVIDAWSAILGRVPGSRLMLKFKGFADETCRRRVSDAFGARGVSPDRLELVSFVENFNDHLALYNRLDLALDTFPYNGTATTCDALWMGVPVLTCCGTRHVARVGASILTSLGLPELITHSPEEYISAAAALAADPARLAALRRDMRPRLAASPLCDPTGFARRMETALRDIWRRWCSA” the value was “failed”.
For “MYALIHHGRRLVQLQKLSNFRVSVQNGSALSNSFSFASVADATLIDSLKGNNFTVSYLVDSLGLTTKLAESISKKVSFEERRNPDSVLSLLTSYGFTKSQISSIITIYPRLLALDAEKSIAPKLQSLQSRGASSSELTQIVSTVPKILGKRGHKSITVYYDFVKDIIEADKSSSYEKLCHSFPQGNKKNKIRNISVLRELGVAQRLLFPLLISDGQPVCGKERFEESLKKVVEMGFDPETTKFVEALRVIYRMSDKTIEEKVNVYKRLGFGVADVWAIFKKWPSFLSYSEKKITHTFETLKSCGLLKHEVLLLLKKHPKCICSSEQKIVNSIETFLGLGFSRDEFAMMVKRYPQCIDYTAETVKKKTEFIVKNMNWPLEALVSIPQVFGYSLEKRTVPRCNVIKTLISKGLMKDGSEAPPMSSVLTSTDQAFLRRYVMKHDKLAPELMAIFTGENGK” the value was “failed”.
Regarding “MSQVRQVGLLAAGCQPWNKDVCAANGDRFAYCATLAIYIYQLDHRYNEFRLHAIMAEHKKTITAISWCPHNPDLFASGSTDNLVIIWNVAEQNVIAKLDNIKETPACLSWCWNTGDAVAFVSQKGPLLIWTISGPDSGVSVHKEAHGFVSDICIFRWHTQKKGKVAFGHTDGSISIFQPDEDDPVTALEWDPLSTDYLLVANLHYGIRLLDSESLYCITTFSFPSAAVSVQCLAWVPSAPGMFITGDSQVGVLRIWNVSRTTPIDSFKLKKAGFHCLHVVNSPPKRKFSVQSSNKNHYMSSTSEAVPPPSLTRNQAFSLPPGHVVCCFLDGGVGLYDMGAKKWDFLRELGHVETIFDCKFKPDDPNLLATASFDGTIKVWDINTLTAVYTSPGNEGVIFALSWAPGDLNCIAGATSRNGAFIWDIQKGKMIQRFNEHGKNGIFYIAWSHKDSKRIATCSGDGFCIIRTLDGKLLHKYKHPAAVFGCDWSQNNKDMIATGCEDKHVRVFYVASSSNQPLKVFSGHTARVFHVKWSPLREGVLCSGSDDGSVRIWDYTQDACISILNGHTAPVRGLMWNTEIPYLLISGSWDYTIKVWDTRGGVCLDTVYDHGADVYGLTCHPSRPFTMASCSRDSTVRLWSLIPLITPLQINILADRPWEEIIGNTDNAIEQASPPLLCGKASKDIKQEVEKLTCNPRVKKLRLFSECLSSPGGSDNLWNLVAVIKGQDDSLLPQNYYKGMMHLKHLIKFRTSEAQELTTIKMSKFGGGIGAPTKENKLKEAAEIHLRLGQIQRYCELMVELGEVA”, the protein production entry is on record as “failed”.
“MLAILIFSFLLVILVAGNNSSAVSGTIIGSKMMNKSLALAITAVGYIAGYLLEGRFLQHAVNELLPFEPEYVLYAIIASFVIFTIAFFVKVPISLTMALVGSAIGLSLKLGYSSDARFLTEVIIAWIAAPLISVGSSYVFNDRLSKMRHGDIWRYASAIKVMPIVTAIFTAFTLGANTIGFLGDISGTAVFNEILISIGSVIGTFFFSSGIMKSVSQNMYMMKYTNAFSSQLISALVVEVSTLFSIPMSNTQTLTSAVLGAGLSYRAKAIYLKPFLYIVIMWILSPLIGMAFTYALA”: the protein production entry was “failed”.
For “MLKVSVITACFNSEKTIEDTILSVLHQTYKNIEYIIIDGASTDSTLEIIQKHRDKIACVMSEKDEGIYDAMNKGIKRSSGDIIALLNSDDFYKDEFVVEKVVHEFERKNCDSVYADLVFVKPDCLEKVVRYYEIGEFNPKTLLYGVVPAHPTLFVKKAIYERYGLYKTDYKISADFEMIIRLFVVQKISFSYLKEVLVVMRTGGVSASGFKSLLLRNKENIRACKENGIQANVFSMLLKYPRKIMGLFKRGKGGLKRND” the value was “failed”; for “MASFQQYKTKTGYKWLFKMGVGIDPKTGNRKTTTRRGFKTKKEAVAAAAEFQKEIDNNALARNDITFEDVFKEWWDVHSKTIKRSTRYRKLSNFKKHILPHFGKLKIKDITRAYCQKVINLIAQDIDSVQNVKIQANLVFKYALRMEYITKNPMEFVVIPKKEENFLSQEEEKRNFWEKDEIKTFLEKAHSQLAPQDYVMFYVLIFTGMRKGELIALEWKDVDLKEKTINIKQTMFFENGKEVIQTTKKYHSKRIITIDDQTAQILKKWRTQQKEMLLSNGITSEAKYVLIRGDMRPLRLAYPNDLLNRMITKNKLHRITIHGFRHSHASILFEAGASIKEVQARLGHKEIQTTMNIYTHVTKTAKAKTAETFKKYMEL”, “failed”.
As for “MQFKIIKAQELEKQQREKIAELCFAAFEEDPWSQYAFMQNAFHIIGLLGEDIVSHALWTDRVFTLNNHVTLKTAYIEYVTTDSTMRGRGLASKLLMYLINILTTKKYELAALQPEVEAFYRKLGWVSWGGNLYIKHNISIYKTDGIEVMLYPLSGGLKDQIVCSLKNDKICTDWREGELW”, the protein production entry is “failed”.
For “MAQRVANIMKPFATGLVVGKFAPLHCGHEKLINTALAQCEELFIISYSVPEMPDCEPEKRLTWLQVRFPQATILVLTPELVARYNLPAIPHNDADADIHRHYVATLCLQILRCRPHAVFTAEDYGDGFANVLARRFAQPVEHVRMARPVGDEAPSGTLIRSDVHRYRYMLANDVYYSFVRRICLLGGESTGKSTLSKALADGLDTVYVAEFGRDYWEEKNGILTADDLLHIACEQVRREQQAEANHYLICDTSPLTTLFYALDQYGHAPQELHQLAEREYSLVVLCGAEFPFVQDGTRQGEVFRARQQVWYEQELSRRNIPYLSVSGPLQERVEQILRQLPD” the value was “failed”; for “SKIHNVGSPLKSQNHPDSRAIMYEETTYSKKKIIDFLSALEGFKVMCKIIGIMEEVADGFKSKILKQVISLQTKNPEGRFPDLTVELNRWDTAFDHEKARKTGLITPKAGFDSDYDQALADIRENEQSLLEYLEKQRNRIGCRTIVYWGIGRNRYQLEIPENFTTRNLPEEYELKSTKKGCKRYWTKTIEKKLANLINAEERRDVSLKDCMRRLFYNFDKNYKDWQSAVECIAVLDVLLCLANYSRGGDGPMCRPVILLPEDTPPFLELKGSRHPCITKTFFGDDFIPNDILIGCEEEEQENGKAYCVLVTGPNMGGKSTLMRQAGLLAVMAQMGCYVPAEVCRLTPIDRVFTRLGASDRIMSGESTFFVELSETASILMHATAHSLVLVDELGRGTATFDGTAIANAVVKELAETIKCRTLFSTHYHSLVEDYSQNVAVRLGHMACMVENECEDPSQETITFLYKFIKGACPKSYGFNAARLANLPEEVIQKGHRKAREFEKMNQSLRLFREVCLASERSTVDAEAVHKLLTLIKEL”, “failed”; for “MYFTEFLTVALIHLLAVASPGPDFAVVVRESVTHGRRAGTWTALGVGCAIFLHVGYSLLGIGLIVSQSIVLFNALKWLAAAYLLYIGYKALRAQPAKPAADDLHKEAGVRTARGAFTSGFVTNGLNPKATLFFLSLFTVVINPHTPLAIQAGYGVYLAVATAVWFCLVAMLFSQQRVRAGFARMGHWFDRTMGAVLIAIGVKLAFTEMH”, “failed”.
For “MLIGIDLGTTNSAVALWHEGEARLVPNSLGALLTPSAVSVLQDGTTLVGAAAFERMAAKDGAAATSFKRLLGTDRKVRLGRKEFSAEDLSALVLQSLCADVEAHTGERPTEAVITVPAYFNDRQRKATRRAGELAGLSVRRLINEPTAAALAFGLKDKAEREPFLVFDLGGGTFDVSIVEMFEGIVEVRASAGDNRLGGDDFNGALAMAVKGRLDPDERLATLGEARAQALLLQAAERTRRALTDAPEAEFAVTAGDERLSTTVTASEFEAQAEGLLRRLRDPVVRALRDSQIDAASLSEIVLVGGATRMPLVRKAITRLFGRFPNASVHPDHAVALGAAIQGGLIARDGGLEEIRITDVCPFTLGIETAEHSVRGTIQQGLFSPIIERNTPVPVSRSGVYSTMGDGQKQIAVHIYQGEAREVSGNVKLGTLSVPVPSRPAGEVSIDVRFSYDSSGLLEVDVEVPLTGTRHNLVIIDEEDRKAAKDLDARRKALAALKHHPREEAANQLLLARAERCYEEFLGDVRAVIGGRTLSFTTALDSQDPRRIADAAAELAELLDMLEANPVL” the value was “failed”.
